Data taken from patent publication US10227388B2, “Peptides and combination of peptides for use in immunotherapy against non-small cell lung cancer and other cancers” (immatics biotechnologies GmbH, priority 2015, dated 2019).

Molecular target: HLA-A*02:01 (Homo sapiens, UniProt P04439, D140Y/D185E/D98H/E176V/E277Q/G131W/G231S/I119V/I121R/I166T/I218V/L300P/L318F/N151K/N90K/P208A/P217A/Q86G/Q94H/R138H/R169H/T345S)
Assay: MHC binding assay (UV-ligand exchange, ELISA, peptide exchange yield)
Conditions: binding of HLA-class I restricted peptides to HLA-A*02:01
How it was run: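 Exchange yield was quantified as stabilized β2m-containing complex: monomers diluted 100-fold bound to streptavidin-coated wells, probed with HRP-conjugated anti-β2m, read at 450 nm after TMB. Complexes had been generated by UV cleavage of a photolabile ligand and replacement with the candidate peptide.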

| Substance | Peptide exchange (MHC class I binding score, peptide exchange yield) |
| --- | --- |
| 209 (KLIESKHEV; listed as Homo sapiens) [compound 209] | ″++″ (≥20% = ++) |
| 335 (YSLSSVVTV; listed as Homo sapiens) [compound 335] | ″+++″ (≥50% = +++) |
| 226 (MLYVVPIYL; listed as Homo sapiens) [compound 226] | ″++″ (≥20% = ++) |
| 321 (GLFEDVTQPGILL; listed as Homo sapiens) [compound 321] | ″++++″ (≥75% = ++++) |
| 300 (ALLGQTFSL; listed as Homo sapiens) [compound 300] | ″+++″ (≥50% = +++) |
| 256 (FLPPEHTIVYI; listed as Homo sapiens) [compound 256] | ″+++″ (≥50% = +++) |
| 355 (SIQQSIERLLV; listed as Homo sapiens) [compound 355] | ″++″ (≥20% = ++) |
| 85 (KMSELRVTL; listed as Homo sapiens) [compound 85] | ″+++″ (≥50% = +++) |
| 93 (LLQAIKLYL; listed as Homo sapiens) [compound 93] | ″++″ (≥20% = ++) |
| 232 (ALLEAQDVELYL; listed as Homo sapiens) [compound 232] | ″++″ (≥20% = ++) |
| 124 (ALYETELADA; listed as Homo sapiens) [compound 124] | ″++″ (≥20% = ++) |
| 372 (TMLLNIPLV; listed as Homo sapiens) [compound 372] | ″++″ (≥20% = ++) |
| 128 (YLFDDPLSAV; listed as Homo sapiens) [compound 128] | ″++″ (≥20% = ++) |
| 330 (QLALKVEGV; listed as Homo sapiens) [compound 330] | ″+++″ (≥50% = +++) |
| 52 (FLLAHGLGFLL; listed as Homo sapiens) [compound 52] | ″++++″ (≥75% = ++++) |
| 322 (TLMTSLPAL; listed as Homo sapiens) [compound 322] | ″+++″ (≥50% = +++) |

| Substance | Peptide exchange (MHC class I binding score, peptide exchange yield) |
| --- | --- |
| 23 (VLLDDIFAQL; listed as Homo sapiens) [compound 23] | ″+++″ (≥50% = +++) |
| 120 (ALLGIPLTLV; listed as Homo sapiens) [compound 120] | ″+++″ (≥50% = +++) |
| 249 (LLDGFLVNV; listed as Homo sapiens) [compound 249] | ″+++″ (≥50% = +++) |
| 265 (LLFGGTKTV; listed as Homo sapiens) [compound 265] | ″++″ (≥20% = ++) |
| 358 (ALDEYTSEL; listed as Homo sapiens) [compound 358] | ″++++″ (≥75% = ++++) |
| 18 (YLVAKLVEV; listed as Homo sapiens) [compound 18] | ″++″ (≥20% = ++) |
| 334 (TLTKVLVAL; listed as Homo sapiens) [compound 334] | ″+++″ (≥50% = +++) |
| 119 (FLYIGDIVSL; listed as Homo sapiens) [compound 119] | ″++++″ (≥75% = ++++) |
| 329 (FLVTLNNVEV; listed as Homo sapiens) [compound 329] | ″++++″ (≥75% = ++++) |
| 282 (LLADVVPTT; listed as Homo sapiens) [compound 282] | ″+++″ (≥50% = +++) |
| 22 (IMEENPGIFAV; listed as Homo sapiens) [compound 22] | ″+++″ (≥50% = +++) |
| 155 (RVANLHFPSV; listed as Homo sapiens) [compound 155] | ″+++″ (≥50% = +++) |
| 94 (YLIDIKTIAI; listed as Homo sapiens) [compound 94] | ″++″ (≥20% = ++) |
| 148 (ALNPEIVSV; listed as Homo sapiens) [compound 148] | ″++″ (≥20% = ++) |
| 252 (LLIGTDVSL; listed as Homo sapiens) [compound 252] | ″+++″ (≥50% = +++) |
| 202 (ALLDQQGSRWTL; listed as Homo sapiens) [compound 202] | ″+++″ (≥50% = +++) |

Now from value to substance:

| Peptide exchange (MHC class I binding score, peptide exchange yield) | Substance |
| --- | --- |
| ″+++″ (≥50% = +++) | 509 (FLFDTKPLIV; listed as Homo sapiens) [compound 509] |
| ″++″ (≥20% = ++) | 429 (GLVNDLARV; listed as Homo sapiens) [compound 429] |
| ″++″ (≥20% = ++) | 380 (TLIEDEIATI; listed as Homo sapiens) [compound 380] |
| ″++″ (≥20% = ++) | 524 (ALIENLTHQI; listed as Homo sapiens) [compound 524] |
| ″++″ (≥20% = ++) | 408 (VLDDSIYLV; listed as Homo sapiens) [compound 408] |
| ″+++″ (≥50% = +++) | 474 (YLDPALELGPRNV; listed as Homo sapiens) [compound 474] |
| ″+++″ (≥50% = +++) | 452 (ILLEHGADPNL; listed as Homo sapiens) [compound 452] |
| ″+++″ (≥50% = +++) | 503 (SLNHFTHSV; listed as Homo sapiens) [compound 503] |
| ″++++″ (≥75% = ++++) | 552 (GLLDLPFRVGV; listed as Homo sapiens) [compound 552] |
| ″+++″ (≥50% = +++) | 444 (GLLRDEALAEV; listed as Homo sapiens) [compound 444] |
| ″+++″ (≥50% = +++) | 515 (LLQELVLFL; listed as Homo sapiens) [compound 515] |
| ″++″ (≥20% = ++) | 574 (YLLQEPPRTV; listed as Homo sapiens) [compound 574] |
| ″+++″ (≥50% = +++) | 495 (FIFSEKPVFV; listed as Homo sapiens) [compound 495] |
| ″+++″ (≥50% = +++) | 539 (ALFDAQAQV; listed as Homo sapiens) [compound 539] |
| ″+++″ (≥50% = +++) | 480 (ALLEDSCHYL; listed as Homo sapiens) [compound 480] |
| ″+++″ (≥50% = +++) | 388 (SLTIDGIRYV; listed as Homo sapiens) [compound 388] |
| ″++″ (≥20% = ++) | 402 (VLFSGALLGL; listed as Homo sapiens) [compound 402] |
| ″++″ (≥20% = ++) | 379 (IMEGTLTRV; listed as Homo sapiens) [compound 379] |
